Measured values: US20050148035A1 (Genentech, published 2005)

Assays:
[1] = target: T1, native-sequence human IGFBP-3 (human, UniProt P17936 28-291); experiment: BIAcore competition: bp15 (15 nM to 100 µM) pre-incubated 1 h with 20 nM IGFBP-3, injected over immobilised biotinylated IGF-I (bIGF-I, squares); blocked ligand IGF-I; one-site competition fit
T1 construct: also called wild-type IGFBP-3; full-length IGFBP-3

[2] = target: T2, miniBP-3 fusion protein (human); experiment: BIAcore competition, bp15 preincubated with miniBP-3 fusion, injected over immobilised biotinylated IGF-I
T2 construct: Uncleaved fusion, made in E. coli BL21 from pET21a and purified on IgG Sepharose

[3] = target: T1, native-sequence human IGFBP-3; experiment: BIAcore competition: bp15 (15 nM to 100 µM) pre-incubated 1 h with 20 nM IGFBP-3, injected over immobilised biotinylated IGF-II (bIGF-II, triangles); blocked ligand IGF-II; one-site competition fit

B1: peptide bp15 (peptide)
peptide: SEEVCWPVAEWYLCN
notes: Identified by phage display (Lowman et al. 1998); also called bp15 peptide
- IC50 [1]: 105 nM
- binding result [2]: binds
- IC50 [3]: 147 nM
